Measurements: paper PMC8816810

Molecular target: AMdnB (Anabaena sp. PCC 7120)
Assay: ITC

Binder MPENRQEDLNAQAVPFFARFLEGQ [AMdnA_(1–24) peptide (truncated AMdnA LP)] has a Kd of 12.3 µM.
